Ends that are not written are not given here. * marks the point of attachment. sulfate = O=S(=O)(O)*

Among the data in patent US20020026033A1 (BOARD OF REGENTS OF THE UNIVERSITY OF OKLAHOMA, published 2002) are Kd values, retold here.

The target of this assay is T1, recombinant soluble P-selectin (sPS) (UniProt P16109 42-771, limits assumed).
T1 construct: Neither the residues nor the species are stated
T1 sequence (looked up): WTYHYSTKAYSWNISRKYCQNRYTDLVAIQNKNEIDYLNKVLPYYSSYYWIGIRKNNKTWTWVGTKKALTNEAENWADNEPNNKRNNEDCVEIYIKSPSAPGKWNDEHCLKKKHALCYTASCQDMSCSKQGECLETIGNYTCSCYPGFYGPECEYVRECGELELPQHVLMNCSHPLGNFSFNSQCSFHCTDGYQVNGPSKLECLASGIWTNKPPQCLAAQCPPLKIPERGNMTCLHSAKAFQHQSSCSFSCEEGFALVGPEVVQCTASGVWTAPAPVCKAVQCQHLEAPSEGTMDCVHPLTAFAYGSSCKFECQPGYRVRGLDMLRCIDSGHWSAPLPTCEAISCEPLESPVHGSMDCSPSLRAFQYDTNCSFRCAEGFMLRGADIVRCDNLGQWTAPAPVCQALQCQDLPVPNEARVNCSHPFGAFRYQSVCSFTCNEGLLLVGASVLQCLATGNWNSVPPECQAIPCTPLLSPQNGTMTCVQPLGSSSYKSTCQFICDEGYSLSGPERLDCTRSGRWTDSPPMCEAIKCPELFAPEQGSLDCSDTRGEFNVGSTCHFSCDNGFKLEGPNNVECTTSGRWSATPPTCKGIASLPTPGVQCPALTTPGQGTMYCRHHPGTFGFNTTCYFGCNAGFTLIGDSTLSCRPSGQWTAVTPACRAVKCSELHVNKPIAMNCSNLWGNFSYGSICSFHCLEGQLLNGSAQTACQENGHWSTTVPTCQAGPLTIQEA
The experiment in a line: equilibrium gel filtration; fluid-phase sPS (25-1000 pmol) on columns equilibrated with 35SO3-GSP-6 in Ca2+-containing buffer. On the procedure: Equilibrium gel filtration experiments were conducted in a Sephadex G-75 column (0.5×10 cm, 2 ml) equilibrated with 4 ml of 20 mM MOPS, pH 7.5, containing 150 mM NaCl, 2 mM CaCl₂, 2 mM MgCl₂, and 0.02% NaN₃ (buffer A), and ³⁵SO₃-GSP-6 (10,000 cpm/ml, specific activity 1700 cpm/pmol). Different amounts of soluble P-selectin (sPS) (25-1000 pmol) (Ushiyama et al., J. Biol. Chem., 268:15229-15237, 1993) were preincubated for 30-60 min in 120 μl of buffer A containing ³⁵SO₃-GSP-6 and applied to the column. Samples were eluted with buffer A (including ³⁵SO₃-GSP-6), and 140 μl fractions were collected at a flow rate of 70 μl/min. Radioactivity in the fractions was determined by liquid scintillation counting. Control experiments to test inhibitors of binding between sPS and GSP-6 were performed using 400 pmol of sPS and 5,000 cpm/ml of ³⁵SO₃-GSP-6. The EDTA concentration was 1 mM in 20 mM MOPS, pH 7.5, 150 mM NaCl, 0.02% NaN₃. Anti-P-selectin monoclonal antibodies (G1 and S12) (800 pmol each) were preincubated for 30 min with sPS in buffer A before ³⁵SO₃-GSP-6 was added. Elution was performed by using buffer A with ³⁵SO₃-GSP-6.
The dissociation constant (Kd) for binding of GSP-6 to soluble sPS was determined using an equilibrium gel filtration technique. […]
A general note: In gel filtration, larger molecules generally elute earlier.

B1: glycosulfopeptide-6 (GSP-6) (peptide)
peptide: GQATEY(sulfate)EY(sulfate)LDY(sulfate)DFLPETEPPEML
modifications: also: core-2 O-glycan with sialyl Lewis x on a Thr, position not given here
notes: range 42-63; Synthetic glycosulfopeptide; also called 35SO3-GSP-6; 35SO3-glycosulfopeptide-6
One may read the Kd as the concentration at which binding is half-saturated. Take B1: the equilibrium dissociation constant (Kd) was about 350 nM.
